Test results as given in US20120115202A1.

Molecular target: PsaJF mutant PSI from Synechocystis sp. PCC 6803 (Synechocystis sp. PCC 6803) (UniProt Q55329)
Experiment: cell-based or functional assay

rate of electron donation (light-induced cytochrome c oxidation, absorbance difference 550-540 nm) (fold faster than to the wild-type PSI): > 5
Substance: horse heart cytochrome c (from UniProt P00004 2-105)
